In paper PMC3290704 (2012) one finds Kd data, which are given here for 1 molecule.

Assay [1] has as its target T1, p53 AD1 13-37 (Homo sapiens, UniProt P04637). The experiment in a line: NMR HSQC titration, local fit raw.
The target of assay [2] is T1, p53 AD1 13-37. The experiment in a line: NMR HSQC titration, global fit SVD.
Assay [3] addresses T1, p53 AD1 13-37. The assay is described as follows: NMR HSQC titration, local fit raw. This is another data set of the same source.
The target of assay [4] is T1, p53 AD1 13-37. The assay is described as follows: NMR HSQC titration, global fit raw.
Assay [5] has as its target T1, p53 AD1 13-37. The assay is described as follows: NMR HSQC titration, local fit SVD.
Assay [6] addresses T1, p53 AD1 13-37. The assay is described as follows: NMR HSQC titration, local fit SVD. The source holds these as a separate data set.
Assay [7] deals with T1, p53 AD1 13-37. The assay is described as follows: NMR HSQC titration, local fit raw with concentration correction.

T1 sequence (P04637 13-37): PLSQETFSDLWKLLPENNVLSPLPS

B1: CBP TAZ2 1764-1855 (protein)
chain: SPQESRRLSIQRCIQSLVHACQCRNANCSLPSCQKMKRVVQHTKGCKRKTNGGCPVCKQLIALCCYHAKHCQENKCPVPFCLNIKHKLRQQQ
As for B1, the equilibrium dissociation constant (Kd) (as a rule, a measure of binding affinity in units of concentration) in the assay with p53 AD1 13-37 [1] came out at 448 µM; with p53 AD1 13-37 [2], 32 µM; with p53 AD1 13-37 [3], 27 µM; with p53 AD1 13-37 [4], 180 µM; with p53 AD1 13-37 [5], 33 µM; with p53 AD1 13-37 [6] it was 225 µM. Moreover, binding in the assay with p53 AD1 13-37 [7] was characterised by a dissociation constant (Kd) of 345 µM.
